Assay results as given in article PMC7646477.

Target: rhCD39-ECD
Assay: BLI
Details: 30.0 °C

Substance: TTX-030
- Kd (pH 6.5): approximately 1.5 nM
- Kd (pH 7.4): approximately 1.5 nM
